Measured values from patent US11111296B2, “Compositions and methods for treating cardiac dysfunction” (THE BROAD INSTITUTE, INC., priority 2015, dated 2021).

System: myosin heavy chain in cells
Experiment: cachexia functional assay (levels of myosin heavy chain in treated cells)
Format: cell-based
Conditions: for cachexia-inducing activity of RAGE ligands: FIG. 8
Text: The compounds that are thus designed or selected may further be tested in an in vitro, in vivo, or ex vivo assays to determine if they regulate RAGE. Such assays are known to one skilled in the art. In some embodiments, the assay is a cachexia functional assay as described herein and further described in PCT/US2014/068631, which is incorporated herewith in its entirety.
In studies described herein below, a refined model of the cachectic signal was obtained (FIG. 2). Functional sites on the RAGE polypeptide were determined using a combination of experiments mapping binding interface(s) of anti-RAGE antibodies with RAGE polypeptide using hydrogen-deuterium exchange (HDEX) reactions and cachexia functional assays. As described elsewhere herein, results of the cachexia functional assay indicate whether a candidate agent (e.g., a particular anti-RAGE antibody) has cachexia-inhibitory or cachexia-inducing activity, as measured, for example, by levels of myosin heavy chain in cells treated with the candidate agent relative to a control or baseline myosin heavy chain level.

Row | Molecule | cachexia-inhibitory activity (levels of myosin heavy chain) (cells treated with various concentrations of FPS3 (FIG. 7B)) | cachexia-inducing activity of RAGE ligands
1 | CCCCCC(=Cc1ccccc1)CN(CCc1c[nH]c2ccccc12)C(=O)c1ccc(Cl)c([N+](=O)[O-])c1 [FPS3, reference compound] | had cachexia-inhibitory activity | 
2 | S100A8/9: RAGE ligand, cachexia-inducing (protein) chain 1: MLTELEKALNSIIDVYHKYSLIKGNFHAVYRDDLKKLLETECPQYIRKKGADVWFKELDINTDGAVNFQEFLILVIKMGVAAHKKSHEESHKE chain 2: MTCKMSQLERNIETIINTFHQYSVKLGHPDTLNQGEFKELVRKDLQNFLKKENKNEKVIEHIMEDLDTNADKQLSFEEFIMLMARLTWASHEKMHEGDEGPGHHHKPGLGEGTP |  | cachexia-inducing
3 | S100B: RAGE ligand, non-cachexia-inducing (protein) SELEKAMVALIDVFHQYSGREGDKHKLKKSELKELINNELSHFLEEIKEQEVVDKVMETLDNDGDGECDFQEFMAFVAMVTTACHEFFEHE |  | non-cachexia-inducing
4 | S100P: RAGE ligand, non-cachexia-inducing (protein) MTELETAMGMIIDVFSRYSGSEGSTQTLTKGELKVLMEKELPGFLQSGKDKDAVDKLLKDLDANGDAQVDFSEFIVFVAAITSACHKYFEKAGLK |  | non-cachexia-inducing
5 | S100A7: RAGE ligand, cachexia-inducing; sequence NP_002954.2 (protein) MSNTQAERSIIGMIDMFHKYTRRDDKIEKPSLLTMMKENFPNFLSACDKKGTNYLADVFEKKDKNEDKKIDFSEFLSLLGDIATDYHKQSHGAAPCSGGSQ |  | cachexia-inducing
